Values quoted from earlier work as cited in publication PMC12537681.

Target: Spike glycoprotein trimer (Severe acute respiratory syndrome coronavirus 2) (UniProt P0DTC2)

Question: Which Kd does the source give for TLR4 (from UniProt O00206) here?
Answer: 300 nM
